Experimental data as given in patent US20030143656A1 (published 2003).
Values joined by “and” are separate entries in the source; they are usually repeats but may differ in a detail not shown here. Equal entries are not always repeated. Where no end group is shown, it is not given here. The star is where a group is joined. Biotin = O=C1N[C@H]2[C@H](CS[C@H]2CCCCC(=O)*)N1

T1: GST-PDK1 L155S (human, UniProt O15530 1-556)
T1 construct: range 1-556; not shown: N-terminal GST tag, pEBG2T vector
T1 sequence (looked up): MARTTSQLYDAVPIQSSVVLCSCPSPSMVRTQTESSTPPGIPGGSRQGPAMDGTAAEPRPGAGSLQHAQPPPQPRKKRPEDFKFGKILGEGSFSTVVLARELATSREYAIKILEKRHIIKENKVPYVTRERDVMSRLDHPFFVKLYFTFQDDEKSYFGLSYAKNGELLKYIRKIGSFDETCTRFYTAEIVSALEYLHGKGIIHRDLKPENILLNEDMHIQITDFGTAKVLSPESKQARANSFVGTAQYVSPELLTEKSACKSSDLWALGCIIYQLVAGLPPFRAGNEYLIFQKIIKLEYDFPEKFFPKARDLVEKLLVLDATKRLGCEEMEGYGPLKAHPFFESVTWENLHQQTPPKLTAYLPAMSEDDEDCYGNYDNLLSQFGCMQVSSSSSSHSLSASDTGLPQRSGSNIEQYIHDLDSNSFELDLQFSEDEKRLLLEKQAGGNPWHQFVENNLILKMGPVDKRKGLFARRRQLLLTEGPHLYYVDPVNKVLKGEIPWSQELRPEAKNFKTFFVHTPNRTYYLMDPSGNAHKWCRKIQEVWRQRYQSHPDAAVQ

T2: GST-PDK1 L155D (human, UniProt O15530 1-556)
T2 construct: range 1-556; also called L155D mutant of GST-PDK1; not shown: N-terminal GST tag, pEBG2T vector
T2 sequence (looked up): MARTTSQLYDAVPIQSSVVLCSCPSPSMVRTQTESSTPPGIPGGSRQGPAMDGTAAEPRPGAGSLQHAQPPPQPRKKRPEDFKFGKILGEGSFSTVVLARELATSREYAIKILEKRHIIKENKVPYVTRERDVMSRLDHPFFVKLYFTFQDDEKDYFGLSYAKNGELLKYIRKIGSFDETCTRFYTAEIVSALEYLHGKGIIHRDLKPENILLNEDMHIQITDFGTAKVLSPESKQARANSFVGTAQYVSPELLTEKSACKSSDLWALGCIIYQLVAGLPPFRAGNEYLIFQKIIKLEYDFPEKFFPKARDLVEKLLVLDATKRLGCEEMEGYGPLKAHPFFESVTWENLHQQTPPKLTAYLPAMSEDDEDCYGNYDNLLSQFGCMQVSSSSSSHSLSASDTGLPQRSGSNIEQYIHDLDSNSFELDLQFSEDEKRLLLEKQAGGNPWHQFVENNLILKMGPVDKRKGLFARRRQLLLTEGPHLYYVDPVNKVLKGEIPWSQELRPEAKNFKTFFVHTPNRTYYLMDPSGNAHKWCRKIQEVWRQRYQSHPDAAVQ

T3: GST-PDK1 L155E (human, UniProt O15530 1-556)
T3 construct: range 1-556; not shown: N-terminal GST tag, pEBG2T vector
T3 sequence (looked up): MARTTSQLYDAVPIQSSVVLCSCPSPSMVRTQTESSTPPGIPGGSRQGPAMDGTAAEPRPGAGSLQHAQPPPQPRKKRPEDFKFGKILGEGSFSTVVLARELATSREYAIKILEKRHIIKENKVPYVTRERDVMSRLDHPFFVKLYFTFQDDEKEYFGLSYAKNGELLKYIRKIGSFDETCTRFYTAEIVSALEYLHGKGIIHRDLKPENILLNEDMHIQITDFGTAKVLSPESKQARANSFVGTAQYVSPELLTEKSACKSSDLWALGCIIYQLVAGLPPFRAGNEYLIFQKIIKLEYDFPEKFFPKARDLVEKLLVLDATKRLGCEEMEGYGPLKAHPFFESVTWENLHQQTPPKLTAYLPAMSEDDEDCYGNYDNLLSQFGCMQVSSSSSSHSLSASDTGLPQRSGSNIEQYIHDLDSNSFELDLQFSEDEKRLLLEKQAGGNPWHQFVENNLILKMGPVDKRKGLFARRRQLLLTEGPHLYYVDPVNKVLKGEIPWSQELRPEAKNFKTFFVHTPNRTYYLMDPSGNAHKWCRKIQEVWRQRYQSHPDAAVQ

T4: His-PDK1 (human, UniProt O15530 52-556)
T4 construct: range 52-556; Expressed in Sf9 cells; also called His-tagged PDK1; PDK1 (residues 52-556) with a hexahistidine tag; not shown: N-terminal hexahistidine (His) tag
T4 sequence (looked up): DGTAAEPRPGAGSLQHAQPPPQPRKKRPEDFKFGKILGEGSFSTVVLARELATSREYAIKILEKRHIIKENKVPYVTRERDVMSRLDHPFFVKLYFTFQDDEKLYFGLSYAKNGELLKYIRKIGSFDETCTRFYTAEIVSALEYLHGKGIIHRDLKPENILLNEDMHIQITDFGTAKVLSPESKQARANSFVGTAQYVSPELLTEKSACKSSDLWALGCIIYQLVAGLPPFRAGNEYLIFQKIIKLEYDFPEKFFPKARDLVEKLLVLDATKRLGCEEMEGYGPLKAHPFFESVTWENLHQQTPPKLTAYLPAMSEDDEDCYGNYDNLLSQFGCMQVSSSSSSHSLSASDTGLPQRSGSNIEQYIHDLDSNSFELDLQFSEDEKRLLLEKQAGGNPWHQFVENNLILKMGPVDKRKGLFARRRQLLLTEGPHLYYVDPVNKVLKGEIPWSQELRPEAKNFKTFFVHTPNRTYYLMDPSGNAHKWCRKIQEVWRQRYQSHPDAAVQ


How the values were obtained:
[1] = target: T1, GST-PDK1 L155S; experiment: SPR over immobilised biotinylated PIFtide
Procedure: (§1) Duplicates of each condition are shown. Similar results were obtained in 3 to 5 separate experiments. (D) Surface Plasmon Resonance measurements were carried out in a BiaCore instrument as described in the Methods to measure the interaction of wild type and mutant GST-PDK1 preparations with the 24 residue synthetic peptide whose sequence encompasses the PDK1 binding site on PIF termed PIFtide [24: Example 2]. PIFtide was immobilised on a SA SensorChip and wild type (wt) or the indicated mutants of PDK1 were injected at a concentration of 40 nM. All data are single determinations from a representative experiment that was repeated at least 3 times with similar results. For clarity, the bulk, refractive index changes associated with the beginning and end 10 seconds of the injection have been removed.
(§2) Binding was analysed directly by surface plasmon resonance in an upgraded Bia-Lite™ system. PIFtide (comprising the last 24 residues of PRK2) was biotinylated though its C-terminal Cys and bound to an streptavidin-coated Sensor/Chip SA, as described previously. Wild type or mutant preparations of GST-PDK1 (10-400 nM) were injected in an intracellular type buffer, over the immobilised biotinylated PIFtide at a flow rate of 30 μl per min as described previously (James et al (1996) Biochem J 315, 709-713). Alternatively, the wild type or mutant preparations of GST-PDK1 (1 μM) were incubated with PIFtide or D978A-PIFtide (0.10 μM) and the mixture injected over the immobilised peptides. The decrease is steady state binding between wild type and mutant GST-PDK1 and peptide was used to determine the Kd of interaction between PDK1 and the peptide. The decrease in the maximal response at different concentrations of peptide was used to evaluate the relative affinities of both peptides for PDK1. The sensor chip surface was regenerated by pulses of 10 mM NaOH. […]

[2] = target: T2, GST-PDK1 L155D; experiment: SPR over immobilised biotinylated PIFtide
Procedure: as §1, §2

[3] = target: T3, GST-PDK1 L155E; experiment: SPR over immobilised biotinylated PIFtide
Procedure: as §1, §2

[4] = target: T4, His-PDK1; experiment: SPR, immobilised biotinylated 24 residue peptide
[5] = target: T3, GST-PDK1 L155E; experiment: binding experiment not described (presumably pull-down)
Procedure: Binding of PDK1 to SGK1 and S6K1. For the data presented in FIG. 22, 293 cells were cotransfected with 10 μg of the wild type or mutant PDK1 plasmid and 10 μg of either the wild type or mutant S6K1 or SGK1. 36 h post-transfection the cells were lysed in 0.6 ml of Buffer A and the lysates were cleared by centrifugation at 13 000×g for 10 min at 2° C., and 0.5 ml of supernatant was incubated for 2 h at 4° C. with 30 μl of glutathione-Sepharose. The beads were washed twice in Buffer A containing 0.5 M NaCl, followed by two further washes in Buffer A. The beads were resuspended in 30 μl Laemmli Sample Buffer and subjected to SDS polyacrylamide gel electrophoresis. The gels were either stained with Coomassie blue, or analysed by immunoblotting with either anti-Flag or anti-Myc antibodies (described below).
Interaction of S6K1 and SGK1 with PDK1. […] We therefore tested whether this could be explained by the inability of full length S6K1 to interact with PDK1. To test this hypothesis we coexpressed in 293 cells GST-PDK1 together with full length S6K1, fill length S6K1[T412E] and the C-terminal truncated forms of these mutants (S6K1-T2 and S6K1-T2[T412E]) which have Flag epitope tags. Glutathione-Sepharose “pull-downs” of GST-PDK1 from these extracts were immunoblotted for the presence of Flag epitope tagged S6K1. […] S6K1-T2[T412E] interacted moderately better with GST-PDK1 compared to S6K1-T2.

| binding result [1] | binding result [2] | binding result [3] | Kd [4] | binding result [5] | Binder |
| --- | --- | --- | --- | --- | --- |
| no binding (tested: injected at 40 nM) | no binding (tested: injected at 40 nM) | no binding (tested: injected at 40 nM) | 800 nM and 1500 nM | – | REPRILSEEEQEMFRDFDYIADWC(Biotin) (also called immobilised, biotinylated synthetic peptide termed PIFtide; immobilised and biotinylated 24 residue synthetic peptide) [biotinylated PIFtide, immobilised] |
| – | – | – | – | no binding | full length S6K1 mutant in which Thr412 and all five phosphorylated C-terminal residues were mutated to acidic residues (enzyme, human, UniProt P23443 1-525, looked up, mature) MRRRRRRDGFYPAPDFRDREAEDMAGVFDIDLDQPEDAGSEDELEEGGQLNESMDHGGVGPYELGMEHCEKFEISETSVNRGPEKIRPECFELLRVLGKGGYGKVFQVRKVTGANTGKIFAMKVLKKAMIVRNAKDTAHTKAERNILEEVKHPFIVDLIYAFQTGGKLYLILEYLSGGELFMQLEREGIFMEDTACFYLAEISMALGHLHQKGIIYRDLKPENIMLNHQGHVKLTDFGLCKESIHDGTVTHTFCGTIEYMAPEILMRSGHNRAVDWWSLGALMYDMLTGAPPFTGENRKKTIDKILKCKLNLPPYLTQEARDLLKKLLKRNAASRLGAGPGDAGEVQAHPFFRHINWEELLARKVEPPFKPLLQSEEDVSQFDSKFTRQTPVDSPDDSTLSESANQVFLGFEYVAPSVLESVKEKFSFEPKIRDPRRFIGDPREPVDPVKFDPGDFWGRGASASTANPQTPVEYPMETSGIEQMDVTMSGEASAPLPIRQPNSGPYKKQAFPMISKRPEHLRMNL |
